Residue numbers refer to the chain shown, from its start. Numbers in names are those of the source. Where “and” joins values, the source holds several entries; their conditions need not be identical. Identical values can stand only once.
T1: Recombinant human CD123 SP1 ECD-His tag protein (human, UniProt P26951 20-305)
T1 construct: bought from R&D Systems (#301-R3/CF); biotinylated for some assays; also called rhCD123 SP1; huCD123 ECD SP1
T1 sequence: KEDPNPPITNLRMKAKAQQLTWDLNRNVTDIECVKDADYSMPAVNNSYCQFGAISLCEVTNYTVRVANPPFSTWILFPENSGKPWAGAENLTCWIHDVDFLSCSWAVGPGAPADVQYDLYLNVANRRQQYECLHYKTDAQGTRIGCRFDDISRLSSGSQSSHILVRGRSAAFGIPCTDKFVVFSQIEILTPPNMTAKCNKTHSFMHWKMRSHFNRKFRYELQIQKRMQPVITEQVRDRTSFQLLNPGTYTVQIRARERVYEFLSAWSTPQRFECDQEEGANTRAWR

T2: Recombinant human CD123 SP2 ECD protein (human, UniProt P26951 101-303)
T2 construct: also called rhCD123 SP2; CD123 ECD SP2
T2 sequence: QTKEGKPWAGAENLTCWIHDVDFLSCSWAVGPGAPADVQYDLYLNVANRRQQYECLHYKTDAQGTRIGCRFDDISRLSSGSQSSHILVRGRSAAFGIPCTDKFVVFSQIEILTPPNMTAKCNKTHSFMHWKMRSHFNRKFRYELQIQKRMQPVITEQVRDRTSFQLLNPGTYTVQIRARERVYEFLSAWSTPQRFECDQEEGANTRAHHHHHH

T3: cyno CD123 ECD displayed on pDisplay-transfected cells (cynomolgus monkey)
T3 construct: ECD anchored on the surface of stably transfected HEK293 cells; also called cynoCD123 SP1 cells; cynoCD123 cells
T3 chain: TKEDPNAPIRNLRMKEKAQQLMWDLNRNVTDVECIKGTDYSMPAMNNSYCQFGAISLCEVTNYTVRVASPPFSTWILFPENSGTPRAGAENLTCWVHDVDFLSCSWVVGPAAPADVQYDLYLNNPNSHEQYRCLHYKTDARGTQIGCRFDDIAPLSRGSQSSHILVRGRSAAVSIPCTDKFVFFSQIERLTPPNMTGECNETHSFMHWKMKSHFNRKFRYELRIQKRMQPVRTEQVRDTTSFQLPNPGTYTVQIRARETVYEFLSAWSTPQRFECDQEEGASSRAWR

B1: I3RB33 (antibody, IgG1, V domains shown)
VH: QVQLVQSGAEVKKPGSSVKVSCKASGGTFSSYGISWVRQAPGQGLEWMGGIIPIFGTANYAQKFQGRVTITADESTSTAYMELSSLRSEDTAVYYCARGYWHWNYDYLDYWGQGTLVTVSS
VL: EIVLTQSPATLSLSPGERATLSCRASQSVNDWLAWYQQKPGQAPRLLIYGASNRATGIPARFSGSGSGTDFTLTISSLEPEDFAVYYCQQYKRAPYTFGQGTKVEIK
notes: IgG1
B2: I3RB30 (antibody, IgG1, V domains shown)
VH: QVQLVQSGAEVKKPGSSVKVSCKASGGTFSSYAISWVRQAPGQGLEWMGWIIPIFGTANYAQKFQGRVTITADESTSTAYMELSSLRSEDTAVYYCARLVYSSDFDYWGQGTLVTVSS
VL: B1 VL with N30A, D31N, G50Y, K92D, R93G, A94W, Y96R
notes: IgG1; also called 13RB30
B3: I3RB40 (antibody, IgG1, V domains shown)
VH: QVQLVQSGAEVKKPGSSVKVSCKASGGTFSSYAISWVRQAPGQGLEWMGGIIPIFGTANYAQKFQGRVTITADESTSTAYMELSSLRSEDTAVYYCARGQWWADTWFDYWGQGTLVTVSS
VL: B1 VL with N30A, D31K, K92H, R93T, Y96W
notes: IgG1
B4: I3RB20 (antibody, IgG1, V domains shown)
VH: B1 VH with G33A, G99D, Y100D, W101Q, H102I, N104G, Y105S, D106Y, Y107H
VL: not shown
notes: IgG1
B5: I3RB36 (antibody, IgG1, V domains shown)
VH: B1 VH with G99D, Y100L, W101H, H102V, N104A, D106S, Y107N, L108F
VL: not shown
notes: IgG1
B6: I3RB5 (antibody, IgG1, V domains shown)
VH: EVQLLESGGGLVQPGGSLRLSCAASGFTFSGYWMSWVRQAPGKGLEWVSGINYDGGSTYYADSVKGRFTISRDNSKNTLYLQMNSLRAEDTAVYYCAKDHFLAEFDYWGQGTLVTVSS
VL: not shown
notes: IgG1; also called I3RB05
B7: I3RB19 (antibody, IgG1, V domains shown)
VH: EVQLLESGGGLVQPGGSLRLSCAASGFTFSNYAMSWVRQAPGKGLEWVSGIRGNGSSTYYADSVKGRFTISRDNSKNTLYLQMNSLRAEDTAVYYCAKGGPIGARFPDYLDYWGQGTLVTVSS
VL: DIQMTQSPSSLSASVGDRVTITCRASQSIGDFLNWYQQKPGKAPKLLIYYASSLQSGVPSRFSGSGSGTDFTLTISSLQPEDFATYYCQQSYSTPLTFGQGTKVEIK
notes: IgG1; also called 13RB19
B8: CD3B146 (antibody, IgG1, V domains shown)
VH: EVQLVESGGGLVQPGGSLRLSCAASGFTFNTYAMNWVRQAPGKGLEWVARIRSKYNNYATYYAASVKGRFTISRDDSKNSLYLQMNSLKTEDTAVYYCARHGNFGNSYVSWFAYWGQGTLVTVSS
VL: QTVVTQEPSLTVSPGGTVTLTCRSSTGAVTTSNYANWVQQKPGQAPRGLIGGTNKRAPGTPARFSGSLLGGKAALTLSGVQPEDEAEYYCALWYSNLWVFGGGTKLTVL
notes: IgG1 constant region with L234A, L235A, F405L; human lambda constant region; also called CD3B146 hu IgG1-AlaAla F405L
B9: CD123 null 2 (bispecific antibody, human IgG4 S228P, lambda, F234A L235A)
heavy: EVQLLESGGGLVQPGGSLRLSCAASGFTFNTYAMNWVRQAPGKGLEWVARIRSKYNNYATYYADSVKGRFTISRDNSKNTLYLQMNSLRAEDTAVYYCVKHGNFGNSYVSWFAYWGQGTLVTVSSASTKGPSVFPLAPCSRSTSESTAALGCLVKDYFPEPVTVSWNSGALTSGVHTFPAVLQSSGLYSLSSVVTVPSSSLGTKTYTCNVDHKPSNTKVDKRVESKYGPPCPPCPAPEAAGGPSVFLFPPKPKDTLMISRTPEVTCVVVDVSQEDPEVQFNWYVDGVEVHNAKTKPREEQFNSTYRVVSVLTVLHQDWLNGKEYKCKVSNKGLPSSIEKTISKAKGQPREPQVYTLPPSQEEMTKNQVSLTCLVKGFYPSDIAVEWESNGQPENNYKTTPPVLDSDGSFLLYSKLTVDKSRWQEGNVFSCSVMHEALHNHYTQKSLSLSLGK
light: QAVVTQEPSLTVSPGGTVTLTCRSSTGAVTTSNYANWVQQKPGQAPRGLIGGTNKRAPGTPARFSGSLLGGKAALTLSGAQPEDEAEYYCALWYSNLWVFGGGTKLTVLGQPKAAPSVTLFPPSSEELQANKATLVCLISDFYPGAVTVAWKADSSPVKAGVETTTPSKQSNNKYAASSYLSLTPEQWKSHRSYSCQVTHEGSTVEKTVAPTECS
VH: not shown
VL: not shown
notes: also called B21M IgG4 x CD3B217
B10: CD123 null 1 (bispecific antibody, human IgG4 S228P, lambda, F234A L235A)
heavy: B9 heavy with L5V, D64A, N76D, T80S, R89K, A90T, V99A, K100R
light: B9 light with A2T, A80V
VH: not shown
VL: not shown
notes: also called B21M IgG4 x CD3B219
B11: CD123 null 3 (bispecific antibody, human IgG4 S228P, lambda, F234A L235A)
heavy: B9 heavy
light: B9 light with A2T, A80V
VH: not shown
VL: not shown
notes: also called B21M IgG4 x CD3B218
B12: I3RB16 (antibody, IgG1, V domains shown)
VH: B3 VH with Q100A, W101V, A103G, T105Q
VL: not shown
notes: IgG1
B13: I3RB1 (antibody, IgG1, V domains shown)
VH: EVQLLESGGGLVQPGGSLRLSCAASGFTFSDYGMSWVRQAPGKGLEWVSVIRGGGSSKYYADSVKGRFTISRDNSKNTLYLQMNSLRAEDTAVYYCAKHSGSFRFNELDYWGQGTLVTVSS
VL: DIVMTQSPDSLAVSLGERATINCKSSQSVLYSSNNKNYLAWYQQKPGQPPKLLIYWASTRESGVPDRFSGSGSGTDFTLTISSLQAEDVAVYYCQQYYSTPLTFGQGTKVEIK
notes: IgG1; also called I3RB01

Biological target: T1, Recombinant human CD123 SP1 ECD-His tag …
Test: SPR ProteOn, captured mAb
Procedure: (§1) The biosensor surface was prepared by covalently coupling Goat anti-Human IgG (Fc) to the surface of a GLC chip (BioRad) using the manufacturer instructions for amine-coupling chemistry. […] The RU immobilized also included a goat anti-mouse Fc antibody that was added to capture other antibodies not included in the ones reported here. Since the mixture was 1:1 about 50% of these RU immobilized are expected to be goat anti-human Fc. The kinetic experiments were performed at 25° C. in running buffer (PBS pH 7.4, 0.005% P20, 3 mM EDTA). […] The reference spots (Goat anti-Human IgG (Fc)-modified surface) containing no candidate captured were used as a reference surface. Capture of mAb was followed by 3 min injection (association phase) of antigen at 40 μL/min, followed by 10 min of buffer flow (dissociation phase). […] Data was processed on the instrument software. Double reference subtraction of the data was performed by subtracting the curves generated by buffer injection from the reference-subtracted curves for analyte injections. Kinetic analysis of the data was performed using 1:1 Langmuir binding model with group fit. The result for each mAb was reported in the format of Kₐ (kon or on-rate), Kd (koff or off-rate), KD (Equilibrium dissociation constant) (Table 5).

B1 and B2 are within 1.5-fold of each other in Kd: 4.23 nM for the first, 4.17 nM for the second.

First: B3
Second: B4
The Kd of the first is 3.6-fold higher: 6.02 nM for the first, 1.68 nM for the second. The second binds more tightly here.

Compared with B5, B7 is 48-fold higher in Kd: 2.47 nM for the first, 119 nM for the second. The first binds more tightly here.

Compared with B1, B2 is 1.7-fold higher in koff: 0.00177 s⁻¹ for the first, 0.00302 s⁻¹ for the second.

Going from B3 to B4, the koff falls from 0.00346 s⁻¹ to 0.00106 s⁻¹ (3.3-fold).

First: B5
Second: B7
The koff of the first is 15-fold lower: 0.00166 s⁻¹ for the first, 0.0251 s⁻¹ for the second.

First: B1
Second: B2
The kon of the first is 1.7-fold lower: 417000 M⁻¹ s⁻¹ for the first, 725000 M⁻¹ s⁻¹ for the second.

B3 and B4 are within 1.5-fold of each other in kon: 574000 M⁻¹ s⁻¹ for the first, 631000 M⁻¹ s⁻¹ for the second.

First: B5
Second: B7
The kon of the first is 3.2-fold higher: 675000 M⁻¹ s⁻¹ for the first, 211000 M⁻¹ s⁻¹ for the second.

B6 was tested, and the Kd was 12.8 nM and 12.9 nM.

Biological target: T2, Recombinant human CD123 SP2 ECD protein
Test: SPR ProteOn, captured mAb
Procedure: as §1

B1: no binding (tested: 400 nM).
B3: no binding (tested: 400 nM).
B5: no binding (tested: 400 nM).

Going from B2 to B7, the Kd falls from 330 nM to 48.3 nM (6.8-fold). The second binds more tightly here.

Compared with B2, B7 is 3-fold lower in koff: 0.048 s⁻¹ for the first, 0.0161 s⁻¹ for the second.

First: B2
Second: B7
The kon of the first is 2.3-fold lower: 145000 M⁻¹ s⁻¹ for the first, 334000 M⁻¹ s⁻¹ for the second.

For B6, the Kd was 4.88 nM and 4.09 nM.

Biological target: T4, cell-surface CD3 epsilon on primary cynomolgus T cells (cynomolgus monkey, UniProt Q95LI5 22-198)
T4 construct: whole, on cells; also called cynomolgus CD3e; Cyno T-cells
T4 sequence (Q95LI5 22-198): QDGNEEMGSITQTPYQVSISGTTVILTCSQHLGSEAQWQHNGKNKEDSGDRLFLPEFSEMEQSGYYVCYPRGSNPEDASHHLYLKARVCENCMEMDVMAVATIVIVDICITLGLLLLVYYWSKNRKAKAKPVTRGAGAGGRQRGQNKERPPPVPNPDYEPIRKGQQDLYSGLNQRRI
Test: flow cytometry competition with labeled CD3B146 on T cells
Description: (§2) The format involved competition binding using a fixed concentration of labeled anti-CD3 mAb of known affinity and increasing concentrations of unlabeled test Abs (Ashkenazi A et al. PNAS: 88:10535, 1991.).

Going from B8 to B9, the Kd rises from 1.1 nM to 217 nM (200-fold). The first binds more tightly here.

Going from B10 to B11, the Kd rises from 13.4 nM to 237 nM (18-fold).

Biological target: T5, cell-surface CD3 epsilon on primary human T cells (human, UniProt P07766 23-207)
T5 construct: whole, on cells; part of the CD3/TCR complex on the cells
T5 sequence (P07766 23-207): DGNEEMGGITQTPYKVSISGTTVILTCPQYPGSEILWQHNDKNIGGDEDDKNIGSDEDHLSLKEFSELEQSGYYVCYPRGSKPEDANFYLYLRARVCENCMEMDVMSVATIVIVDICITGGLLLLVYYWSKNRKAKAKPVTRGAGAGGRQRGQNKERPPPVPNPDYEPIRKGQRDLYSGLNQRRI
Test: as above
Description: as §2

First: B8
Second: B9
The Kd of the first is 83-fold lower: 3.2 nM for the first, 266 nM for the second.

Compared with B10, B11 is 15-fold higher in Kd: 13.2 nM for the first, 200 nM for the second.

Biological target: T3, cyno CD123 ECD displayed on …
Test: MSD cell binding on 293F pDisplay cells; fold change over background; parental 293F cells as control
Procedure: The object of the screening assay was to identify antibodies that bound to cells expressing hCD123 SP1 and SP2 as well as cross reactivity with cells expressing cynoCD123 SP1.
Cells were immobilized and phages were assayed in triplicate. […] 5000 cells per well were plated into a 384 well plate (MA6000, cat. L21XB, MSD) and allowed to adhere for 2 hr. Cells were then blocked with 20% FBS in PBS (Gibco) for 15 mins. Antibody supernatants were then added and left at RT for 1 hr. Cells were washed 3 times with PBS and a ruthenium labeled secondary antibody (Jackson Immuno Research) was then added at 1 μg/mL and incubated for 1 hr at room temperature. A further washing step was then applied and 35 μL per well of MSD Read buffer T (surfactant free) was then added and incubated for 30 min for detection. Plates were then read using Sector Imager 2400 (MSD). Data was normalized to controls and graphed using GraphPad Prism Version 5. A positive binder was determined to be a hit with a signal 3× greater than background (FIGS. 2A, B and C).

B1: binds.
B2: no binding (tested: 10 µg/mL).
B3: no binding (tested: 10 µg/mL).
B12: no binding (tested: 10 µg/mL).
B13: no binding (tested: 10 µg/mL).
B7: no binding (tested: 10 µg/mL).

From patent publication US20160068605A1 (Janssen / Centocor, published 2016)
